# Reference: the supplement of paper PMC9112550, “Optimization of the antimicrobial peptide Bac7 by deep mutational scanning” (BMC Biology, 2022)
# Test system: Escherichia coli TOP10
# Experiment: shrunken log2 fold change of peptide-encoding DNA abundance (4.5 h post-induction vs induction); higher = less antimicrobial activity (less host growth inhibition)
# Conditions: time post-induction: 4.5 h; library: site-saturation at positions 5, 18, 19, 20
# 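Note: peptides expressed intracellularly from a pBAD plasmid library in pooled LB shake-flask culture, induced with 0.3% L-arabinose, DNA abundance read by NGS, three biological replicates, DESeq2 with apeglm shrinkage.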
row,Sequence,shrunken log2 fold change
1,RRIRTRPPRLPRPRPRPMPWPRP,0.253
2,RRIRDRPPRLPRPRPRPKGNPRP,0.0802
3,RRIRSRPPRLPRPRPRPFLGPRP,-0.186
4,RRIRMRPPRLPRPRPRPGKRPRP,0.078
5,RRIRVRPPRLPRPRPRPRHMPRP,0.152
6,RRIRTRPPRLPRPRPRPSGHPRP,-0.17
7,RRIRMRPPRLPRPRPRPHCRPRP,0.274
8,RRIRQRPPRLPRPRPRPWNMPRP,-0.086
9,RRIRERPPRLPRPRPRPLDFPRP,-0.353
10,RRIRARPPRLPRPRPRPQLSPRP,0.329
11,RRIRGRPPRLPRPRPRPRGFPRP,0.817
12,RRIRARPPRLPRPRPRPLYHPRP,0.149
13,RRIRCRPPRLPRPRPRPFKGPRP,0.0401
14,RRIRIRPPRLPRPRPRPARGPRP,0.624
15,RRIRGRPPRLPRPRPRPDVNPRP,0.245
16,RRIRSRPPRLPRPRPRPDVWPRP,0.49
17,RRIRFRPPRLPRPRPRPLTRPRP,-0.0631
18,RRIRRRPPRLPRPRPRPDTEPRP,0.0209
19,RRIRIRPPRLPRPRPRPIPAPRP,-0.0353
20,RRIRQRPPRLPRPRPRPFMPPRP,-0.216
21,RRIRFRPPRLPRPRPRPQSYPRP,-0.111
22,RRIRDRPPRLPRPRPRPRLEPRP,0.387
23,RRIRTRPPRLPRPRPRPITIPRP,-0.151
24,RRIRCRPPRLPRPRPRPPQGPRP,0.29
25,RRIRKRPPRLPRPRPRPSSSPRP,-0.94

row,Sequence,shrunken log2 fold change
1,RRIRCRPPRLPRPRPRPQTLPRP,-0.148
2,RRIRGRPPRLPRPRPRPHITPRP,-0.0465
3,RRIRVRPPRLPRPRPRPVAPPRP,0.242
4,RRIRIRPPRLPRPRPRPRSVPRP,-0.056
5,RRIRIRPPRLPRPRPRPWSHPRP,-0.416
6,RRIRQRPPRLPRPRPRPATWPRP,0.343
7,RRIRQRPPRLPRPRPRPCWHPRP,-0.129
8,RRIRARPPRLPRPRPRPEPAPRP,1.43
9,RRIRIRPPRLPRPRPRPRKAPRP,-0.000442
10,RRIRLRPPRLPRPRPRPDMLPRP,-0.125
11,RRIRKRPPRLPRPRPRPTHRPRP,1.15
12,RRIRGRPPRLPRPRPRPMDRPRP,0.156
13,RRIRHRPPRLPRPRPRPFMTPRP,-0.188
14,RRIRERPPRLPRPRPRPCTTPRP,-0.172
15,RRIRERPPRLPRPRPRPQSTPRP,-0.319
16,RRIRIRPPRLPRPRPRPWKYPRP,-0.254
17,RRIRQRPPRLPRPRPRPKYPPRP,0.0386
18,RRIRPRPPRLPRPRPRPTKSPRP,0.777
19,RRIRYRPPRLPRPRPRPPQMPRP,0.0297
20,RRIRNRPPRLPRPRPRPWLYPRP,-0.00103
21,RRIRHRPPRLPRPRPRPYQPPRP,-0.216
22,RRIRGRPPRLPRPRPRPQKAPRP,-0.027
23,RRIRSRPPRLPRPRPRPGESPRP,0.249
24,RRIRYRPPRLPRPRPRPVYVPRP,-0.37
25,RRIRMRPPRLPRPRPRPELTPRP,3.52

row,Sequence,shrunken log2 fold change
1,RRIRCRPPRLPRPRPRPFQSPRP,-0.0129
2,RRIRSRPPRLPRPRPRPSPSPRP,0.0408
3,RRIRERPPRLPRPRPRPQSEPRP,-0.000579
4,RRIRFRPPRLPRPRPRPFCQPRP,-0.317
5,RRIRYRPPRLPRPRPRPVWGPRP,0.432
6,RRIRARPPRLPRPRPRPYSPPRP,-0.409
7,RRIRSRPPRLPRPRPRPRRQPRP,0.681
8,RRIRRRPPRLPRPRPRPFLMPRP,0.0572
9,RRIRRRPPRLPRPRPRPNEDPRP,0.352
10,RRIRQRPPRLPRPRPRPARSPRP,0.0407
11,RRIRPRPPRLPRPRPRPPDAPRP,0.553
12,RRIRLRPPRLPRPRPRPIPTPRP,-0.105
13,RRIRVRPPRLPRPRPRPAQCPRP,-0.0313
14,RRIRQRPPRLPRPRPRPSMEPRP,0.0775
15,RRIRMRPPRLPRPRPRPSEFPRP,-0.143
16,RRIRMRPPRLPRPRPRPYLSPRP,-0.0214
17,RRIRTRPPRLPRPRPRPRMFPRP,-0.0163
18,RRIRNRPPRLPRPRPRPHTRPRP,0.0907
19,RRIRLRPPRLPRPRPRPCMAPRP,-0.311
20,RRIRVRPPRLPRPRPRPTNMPRP,-0.472
21,RRIRDRPPRLPRPRPRPSKQPRP,-0.257
22,RRIRWRPPRLPRPRPRPGWTPRP,0.253
23,RRIRSRPPRLPRPRPRPFFAPRP,0.205
24,RRIRLRPPRLPRPRPRPVISPRP,-0.266
25,RRIRERPPRLPRPRPRPQWKPRP,-0.0957

row,Sequence,shrunken log2 fold change
1,RRIRDRPPRLPRPRPRPKMLPRP,0.11
2,RRIRCRPPRLPRPRPRPENVPRP,-0.0137
3,RRIRDRPPRLPRPRPRPFPSPRP,-0.0268
4,RRIRARPPRLPRPRPRPPDSPRP,0.212
5,RRIRCRPPRLPRPRPRPELTPRP,0.0136
6,RRIRKRPPRLPRPRPRPLKKPRP,0.0649
7,RRIRVRPPRLPRPRPRPVYSPRP,-0.0974
8,RRIRKRPPRLPRPRPRPQLYPRP,0.0948
9,RRIRDRPPRLPRPRPRPNYLPRP,-0.126
10,RRIRERPPRLPRPRPRPMPLPRP,0.000847
11,RRIRLRPPRLPRPRPRPNMFPRP,-0.225
12,RRIRMRPPRLPRPRPRPPMLPRP,0.382
13,RRIRCRPPRLPRPRPRPCRRPRP,0.0819
14,RRIRWRPPRLPRPRPRPYLFPRP,-0.31
15,RRIRPRPPRLPRPRPRPTQFPRP,0.274
16,RRIRERPPRLPRPRPRPWEHPRP,-0.221
17,RRIRLRPPRLPRPRPRPDMTPRP,-0.0167
18,RRIRIRPPRLPRPRPRPMKLPRP,-0.519
19,RRIRGRPPRLPRPRPRPPQNPRP,1.01
20,RRIRWRPPRLPRPRPRPFIEPRP,-0.441
21,RRIRSRPPRLPRPRPRPRNYPRP,-0.465
22,RRIRHRPPRLPRPRPRPEKDPRP,-0.0422
23,RRIRARPPRLPRPRPRPNAQPRP,0.158
24,RRIRMRPPRLPRPRPRPNGTPRP,0.0915
25,RRIRVRPPRLPRPRPRPADFPRP,0.0696

row,Sequence,shrunken log2 fold change
1,RRIRLRPPRLPRPRPRPCSVPRP,-0.0962
2,RRIRDRPPRLPRPRPRPLEEPRP,0.0347
3,RRIRSRPPRLPRPRPRPVHSPRP,0.139
4,RRIRIRPPRLPRPRPRPKLTPRP,0.0656
5,RRIRYRPPRLPRPRPRPFEGPRP,-0.000989
6,RRIRVRPPRLPRPRPRPVKQPRP,-0.0475
7,RRIRSRPPRLPRPRPRPHSPPRP,0.146
8,RRIRLRPPRLPRPRPRPKGFPRP,-0.109
9,RRIRLRPPRLPRPRPRPAIEPRP,0.0744
10,RRIRFRPPRLPRPRPRPYPDPRP,0.0764
11,RRIRQRPPRLPRPRPRPHVYPRP,-0.414
12,RRIRYRPPRLPRPRPRPMGIPRP,0.00902
13,RRIRMRPPRLPRPRPRPADQPRP,-0.0145
14,RRIRLRPPRLPRPRPRPARCPRP,0.651
15,RRIRIRPPRLPRPRPRPHEEPRP,-0.031
16,RRIRLRPPRLPRPRPRPKSRPRP,-0.176
17,RRIRERPPRLPRPRPRPQMMPRP,-0.0543
18,RRIRIRPPRLPRPRPRPCLLPRP,-0.495
19,RRIRIRPPRLPRPRPRPRYPPRP,-0.0444
20,RRIRFRPPRLPRPRPRPPDCPRP,0.191
21,RRIRKRPPRLPRPRPRPEYFPRP,0.084
22,RRIRFRPPRLPRPRPRPTMLPRP,-0.423
23,RRIRRRPPRLPRPRPRPNMAPRP,0.0119
24,RRIRPRPPRLPRPRPRPFYWPRP,-0.107
25,RRIRCRPPRLPRPRPRPNHAPRP,-0.00846
